What all share (experiment): SPR, KD relative to WT C2;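 further: biacore SPR at 37 °C, anti-C2 mAbs captured via immobilised goat anti-human IgG, C2 alanine or serine surface mutants as analytes, 1:1 model fitted, double-referenced sensograms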
For orientation: Surface plasmon resonance follows binding to a sensor surface in real time, without labels.

One experiment addresses T1, human C2 G414A (human, UniProt P06681 21-752).
T1 sequence: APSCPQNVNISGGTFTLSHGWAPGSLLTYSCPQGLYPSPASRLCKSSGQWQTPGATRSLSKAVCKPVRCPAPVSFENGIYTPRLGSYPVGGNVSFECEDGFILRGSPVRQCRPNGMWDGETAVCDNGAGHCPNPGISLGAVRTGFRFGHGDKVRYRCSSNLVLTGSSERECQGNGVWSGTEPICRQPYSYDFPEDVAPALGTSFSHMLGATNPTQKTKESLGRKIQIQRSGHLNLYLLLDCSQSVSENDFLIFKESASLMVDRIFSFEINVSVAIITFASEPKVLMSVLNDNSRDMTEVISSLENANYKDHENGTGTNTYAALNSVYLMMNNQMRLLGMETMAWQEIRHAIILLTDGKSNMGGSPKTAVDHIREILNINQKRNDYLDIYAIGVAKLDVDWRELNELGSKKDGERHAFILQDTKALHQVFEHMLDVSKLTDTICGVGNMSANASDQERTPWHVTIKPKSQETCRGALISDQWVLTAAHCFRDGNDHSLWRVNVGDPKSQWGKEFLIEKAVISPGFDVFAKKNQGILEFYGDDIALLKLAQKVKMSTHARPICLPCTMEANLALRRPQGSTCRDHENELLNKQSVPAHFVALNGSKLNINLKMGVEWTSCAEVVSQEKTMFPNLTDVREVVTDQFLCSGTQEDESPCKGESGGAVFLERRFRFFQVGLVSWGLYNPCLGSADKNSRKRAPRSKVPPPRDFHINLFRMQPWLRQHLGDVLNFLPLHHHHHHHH

A further experiment deals with T2, human C2 V465A (human, UniProt P06681 21-752).
T2 sequence: T1 sequence with A394G, V445A

In another experiment the target is T3, human C2 N403A (human, UniProt P06681 21-752).
T3 sequence: T1 sequence with N383A, A394G

For another experiment, the target named is T4, human C2 T483A (human, UniProt P06681 21-752).
T4 sequence: T1 sequence with A394G, T463A

Where a chain is given by its changes, count along the chain named.

B1: RF16-226 (antibody, human IgG4 S228P, lambda)
heavy: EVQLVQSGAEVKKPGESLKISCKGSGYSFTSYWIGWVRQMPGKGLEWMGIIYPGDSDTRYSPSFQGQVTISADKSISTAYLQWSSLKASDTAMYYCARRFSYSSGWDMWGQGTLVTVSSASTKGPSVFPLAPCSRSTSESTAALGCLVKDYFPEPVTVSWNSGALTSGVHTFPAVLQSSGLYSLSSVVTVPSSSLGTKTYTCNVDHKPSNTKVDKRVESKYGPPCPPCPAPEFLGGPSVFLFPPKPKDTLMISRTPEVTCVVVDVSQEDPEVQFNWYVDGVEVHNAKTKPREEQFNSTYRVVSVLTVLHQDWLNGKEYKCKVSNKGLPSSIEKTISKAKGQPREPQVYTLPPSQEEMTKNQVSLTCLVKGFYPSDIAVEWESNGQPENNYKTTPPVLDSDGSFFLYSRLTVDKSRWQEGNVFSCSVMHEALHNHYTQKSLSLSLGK
light: SYELTQPPSVSVSPGQTARITCSGDALTSKYVAWYQQKSGLAPLLVIYEDTRRPSGIPAKFSGSSSGSVATLTISGAHGDDEADYYCYSTDASGHQRVFGGGTKLTVLSQPKAAPSVTLFPPSSEELQANKATLVCLISDFYPGAVTVAWKADGSPVKAGVETTKPSKQSNNKYAASSYLSLTPEQWKSHRSYSCQVTHEGSTVEKTVAPTECS
notes: pH-dependent anti-C2 antibody from a phage display library; also called WT
In the case of B1, the Fold diff was determined as 1 fold with human C2 G414A, 2 fold in the experiment with human C2 V465A, 1 fold with human C2 N403A and 1 fold with human C2 T483A.

The values above are taken from patent US20220332804A1 (CSL INNOVATION, published 2022).
